Results reported in paper doi:10.1101/2024.08.08.606885.
pKd: −log10 of the molar value.

How the values were obtained:
Experiment in all cases: BLI; […]; 10x kinetics buffer, […]; global fit, 1:1 binding model; […]
[1] = target: SARS-CoV-2 BA.2.12.1 RBD (SARS-CoV-2) (UniProt P0DTC2)
[2] = target: SARS-CoV-2 BA.2.75.2 RBD (SARS-CoV-2) (UniProt P0DTC2)
[3] = target: SARS-CoV-2 BA.2.86 RBD (SARS-CoV-2) (UniProt P0DTC2)
[4] = target: SARS-CoV-2 XBB.1.5 RBD (SARS-CoV-2) (UniProt P0DTC2)
[5] = target: SARS-CoV-2 BA.5 RBD (SARS-CoV-2) (UniProt P0DTC2)
[6] = target: SARS-CoV-2 Wuhan-Hu-1 RBD (SARS-CoV-2) (UniProt P0DTC2)
[7] = target: SARS-CoV-2 BQ.1.1 RBD (SARS-CoV-2) (UniProt P0DTC2)
[8] = target: SARS-CoV-2 Delta RBD (SARS-CoV-2) (UniProt P0DTC2)

Substance “TRI2-2 homotrimeric miniprotein inhibitor (designed binder)” has a pKd [1] of 9.07, a koff [1] of 0.000117 s⁻¹ and a kon [1] of 137000 M⁻¹ s⁻¹. For the same substance, the pKd [2] was 9.27, the koff [2] was 8.93e-05 s⁻¹ and the kon [2] was 165000 M⁻¹ s⁻¹. The pKd [3] was 9.41, the koff [3] was 0.000131 s⁻¹ and the kon [3] was 339000 M⁻¹ s⁻¹. The pKd [4] was 9.18, the koff [4] was 0.000105 s⁻¹ and the kon [4] was 160000 M⁻¹ s⁻¹. The pKd [5] was 10.51, the koff [5] was 9.92e-06 s⁻¹ and the kon [5] was 325000 M⁻¹ s⁻¹. For the same substance, the pKd [6] was 11.92, the koff [6] was 3.46e-07 s⁻¹ and the kon [6] was 286000 M⁻¹ s⁻¹. For the same substance, the pKd [7] was 9.68, the koff [7] was 3.36e-05 s⁻¹ and the kon [7] was 160000 M⁻¹ s⁻¹. For the same substance, the pKd [8] was 11.94, the koff [8] was 2.95e-07 s⁻¹ and the kon [8] was 259000 M⁻¹ s⁻¹.
